Tests used:
[1] = biological target: T1, soluble cynomolgus monkey PD-1 (the extracellular domain of cynomolgus monkey PD-1 fused to a human Fc Region) (cynomolgus monkey, UniProt B0LAJ3 25-170); test: ELISA: scyno-PD-1-TEV-Fc coated at 1 ug/ml, goat anti-mouse IgG (H+L) detection, RLU
T1 construct: also called scyno-PD1 Fc; scynoPD-1-hFc; not shown: Human Fc Region and any linker or cleavage site between the extracellular domain and the Fc

[2] = biological target: T2, soluble human PD-1 (the extracellular domain of human PD-1 fused to a His tag) (human, UniProt Q15116 25-170); test: ELISA: shPD-1 His coated at 0.5 ug/ml, goat anti-mouse IgG (H+L) detection, RLU
T2 construct: also called shPD-1 His; shPD-1-His; not shown: His tag

[3] = biological target: T3, soluble human PD-1 (the extracellular domain of human PD-1 fused to a human Fc Region) (human, UniProt Q15116 25-170); test: ELISA: shPD-1 hFc coated at 0.5 ug/ml, goat anti-mouse IgG (H+L) detection, RLU
T3 construct: whole entry named; also called shPD-1 hFc; shPD-1-human Fc; not shown: human Fc Region

[4] = biological target: T4, human PD-1 expressed on the surface of cells (NSO cells expressing human PD-1; MNFAT-luc2/PD-1 Jurkat cells) (human, UniProt Q15116 21-288); test: FACS blocking on NSO cells expressing human PD-1, 1:4 dilutions, MFI; blocked ligand: biotinylated sPD-L1, streptavidin-PE
T4 construct: also called cell surface PD-1; PDCD1 transfected NSO cells expressing PD-1

[5] = biological target: T4, human PD-1 expressed on the surface of …; test: FACS blocking on NSO cells expressing human PD-1, 1:4 dilutions, MFI; blocked ligand: biotinylated sPD-L2, streptavidin-PE
[6] = biological target: T5, soluble cynomolgus monkey PD-1 (scyno PD-1 hFc) cleaved to remove Fc portion (cynomolgus monkey, UniProt B0LAJ3 25-170); test: Biacore, mAb captured on Protein A, analyte scyno PD-1 hFc cleaved of Fc
[7] = biological target: T2, soluble human PD-1 (the extracellular …); test: Biacore, mAb captured on Protein A, analyte shPD-1 His
[8] = biological target: T5, soluble cynomolgus monkey PD-1 (scyno …); test: Biacore, mAb captured on F(ab)2 goat anti-human Fc, analyte scyno PD-1 hFc cleaved of Fc
[9] = biological target: T4, human PD-1 expressed on the surface of …; test: FACS saturation binding on NSO cells expressing human PD-1, goat anti-human-APC, MFI, 1:4 dilutions

T4 sequence (Q15116 21-288): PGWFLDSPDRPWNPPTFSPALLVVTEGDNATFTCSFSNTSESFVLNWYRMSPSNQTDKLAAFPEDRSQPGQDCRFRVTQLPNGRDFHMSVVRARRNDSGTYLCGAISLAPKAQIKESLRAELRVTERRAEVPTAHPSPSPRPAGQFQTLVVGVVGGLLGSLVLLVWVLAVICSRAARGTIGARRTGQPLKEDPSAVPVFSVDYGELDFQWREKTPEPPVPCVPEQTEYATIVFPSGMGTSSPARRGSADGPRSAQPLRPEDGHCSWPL
T3 sequence (Q15116 25-170): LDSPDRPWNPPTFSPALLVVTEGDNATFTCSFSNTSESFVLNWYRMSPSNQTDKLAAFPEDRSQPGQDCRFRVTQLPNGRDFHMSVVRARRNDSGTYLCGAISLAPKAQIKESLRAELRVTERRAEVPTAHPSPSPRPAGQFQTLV
T2 sequence (Q15116 25-170): as above
T5 sequence (B0LAJ3 entry or part of it limits assumed): as the sequence (Q15116 25-170) above, with D2E, P10A, V19L, T35A, Q75R, T144A counted along it
T1 sequence (B0LAJ3 entry or part of it limits assumed): as the sequence (Q15116 25-170) above, with D2E, P10A, V19L, T35A, Q75R, T144A counted along it

Row | Binder | binding result [1] | binding result [2] | binding result [3] | Kd [6] | Kd [7] | other results
1 | PD-1 mAb 8 (antibody, V domains shown, Murine monoclonal antibody) VH: EGQLQQSGPELVKPGASVKISCKASGYTFTDYYMNWVKQNHGKSLEWIGDINPKNGDTHYNQKFKGEATLTVDKSSTTAYMELRSLTSEDSAVYYCASDFDYWGQGTTLTVSS VL: DVVMTQTPLSLPVGLGDQASISCRSSQTLVYSNGNTYLNWFLQKPGQSPKLLIYKVSNRFSGVPDRFSGSGSGTDFTLKISRVEAEDLGVYFCSQSTHVPFTFGSGTKLEIK | binds | binds | binds |  |  | 
2 | hPD-1 mAb 15 IgG1 (AA) (antibody, V domains shown) VH: EVQLVESGGGLVRPGGSLRLSCAASGFTFSSYLISWVRQAPGKGLEWVAAISGGGADTYYADSVKGRFTISRDNAKNSLYLQMNSLRAEDTATYYCARRGTYAMDYWGQGTLVTVSS VL: DIQMTQSPSSLSASVGDRVTITCLASQTIGTWLAWYQQKPGKAPKLLIYAATSLADGVPSRFSGSGSGTDFTFTISSLQPEDFATYYCQQLYSIPWTFGQGTKLEIKR |  |  |  |  |  | IC50 (read off the curve) [4]: ~0.04 ug/test; IC50 (read off the curve) [5]: ~0.09 ug/test
3 | PD-1 mAb A IgG1 (AA) (antibody, V domains shown) VH: QVQLVESGGGVVQPGRSLRLDCKASGITFSNSGMHWVRQAPGKGLEWVAVIWYDGSKRYYADSVKGRFTISRDNSKNTLFLQMNSLRAEDTAVYYCATNDDYWGQGTLVTVSS VL: EIVLTQSPATLSLSPGERATLSCRASQSVSSYLAWYQQKPGQAPRLLIYDASNRATGIPARFSGSGSGTDFTLTISSLEPEDFAVYYCQQSSNWPRTFGQGTKVEIK |  |  |  |  |  | Kd [8]: 5.6 nM
4 | PD-1 mAb A (nivolumab), constant region not named where tested (antibody, V domains shown, also called 5C4; BMS-936558) VH: QVQLVESGGGVVQPGRSLRLDCKASGITFSNSGMHWVRQAPGKGLEWVAVIWYDGSKRYYADSVKGRFTISRDNSKNTLFLQMNSLRAEDTAVYYCATNDDYWGQGTLVTVSS VL: EIVLTQSPATLSLSPGERATLSCRASQSVSSYLAWYQQKPGQAPRLLIYDASNRATGIPARFSGSGSGTDFTLTISSLEPEDFAVYYCQQSSNWPRTFGQGTKVEIK |  |  |  | 6.9 nM |  | 
5 | hPD-1 mAb 2 IgG1 (AA) (antibody, V domains shown) VH: EVQLVESGGGLVQPGGSLRLSCAASGFVFSSFGMHWVRQAPGKGLEWVAYISSGSMSISYADTVKGRFTISRDNAKNTLYLQMNSLRTEDTALYYCASLSDYFDYWGQGTTVTVSS VL: DVVMTQSPLSLPVTLGQPASISCRSSQSLVHSTGNTYLHWYLQKPGQSPQLLIYRVSNRFSGVPDRFSGSGSGTDFTLKISRVEAEDVGVYYCSQTTHVPWTFGQGTKLEIKR |  |  |  |  |  | IC50 (read off the curve) [4]: ~0.04 ug/test; IC50 (read off the curve) [5]: ~0.1 ug/test; EC50 (read off the curve) [9]: ~0.5 µg/mL
6 | hPD-1 mAb 7 (1.1) IgG1 (AA) (antibody, V domains shown, VH1 with VL1) VH: QVQLVQSGAEVKKPGASVKVSCKASGYSFTSYWMNWVRQAPGQGLEWIGVIHPSDSETWLDQKFKDRVTITVDKSTSTAYMELSSLRSEDTAVYYCAREHYGTSPFAYWGQGTLVTVSS VL: EIVLTQSPATLSLSPGERATLSCRANESVDNYGMSFMNWFQQKPGQPPKLLIHAASNQGSGVPSRFSGSGSGTDFTLTISSLEPEDFAVYFCQQSKEVPYTFGGGTKVEIKR |  |  |  |  |  | IC50 (read off the curve) [4]: ~0.01 ug/test; IC50 (read off the curve) [5]: ~0.01 ug/test; EC50 (read off the curve) [9]: ~0.2 µg/mL
7 | hPD-1 mAb 7 (1.2), constant region not named where tested (antibody, V domains shown) VH: QVQLVQSGAEVKKPGASVKVSCKASGYSFTSYWMNWVRQAPGQGLEWIGVIHPSDSETWLDQKFKDRVTITVDKSTSTAYMELSSLRSEDTAVYYCAREHYGTSPFAYWGQGTLVTVSS VL: EIVLTQSPATLSLSPGERATLSCRASESVDNYGMSFMNWFQQKPGQPPKLLIHAASNQGSGVPSRFSGSGSGTDFTLTISSLEPEDFAVYFCQQSKEVPYTFGGGTKVEIK |  |  |  | 1.7 nM | 0.39 nM | 
8 | hPD-1 mAb 9 (1.1), constant region not named where tested (antibody, V domains shown) VH: EVQLVESGGGLVRPGGSLKLSCAASGFTFSSYLVSWVRQAPGKGLEWVATISGGGGNTYYSDSVKGRFTISRDNAKNSLYLQMNSLRAEDTATYYCARYGFDGAWFAYWGQGTLVTVSS VL: DIQMTQSPSSLSASVGDRVTITCRASENIYSYLAWYQQKPGKAPKLLIYNAKTLAAGVPSRFSGSGSGTDFTLTISSLQPEDFATYYCQHHYAVPWTFGQGTKLEIK |  |  |  | 73.3 nM | 36.1 nM | 
9 | PD-1 mAb 14 (antibody, V domains shown, Murine monoclonal antibody) VH: QVQLQQPGAELVKPGASVKMSCKASGYNFISYWITWVKQRPGQGLQWIGNIYPGTDGTTYNEKFKSKATLTVDTSSSTAYMHLSRLTSEDSAVYYCATGLHWYFDVWGTGTTVTVSS VL: DIVMTQSQKFMSTSVGDRVSVTCKASQSVGTNVAWYQQKPGQSPKALIYSASSRFSGVPDRFTGSGSGTDFTLTISNVQSEDLAEYFCQQYNSYPYTFGGGTKLEIK | binds | binds | binds |  |  | 
10 | PD-1 mAb 13 (antibody, V domains shown, Murine monoclonal antibody) VH: EVMLVESGGGLVKPGGSLKLSCAASGFTFSSHTMSWVRQTPEKRLEWVATISGGGSNIYYPDSVKGRFTISRDNAKNTLYLQMSSLRSEDTALYYCARQAYYGNYWYFDVWGTGTTVTVSS VL: DIQMTQSPATQSASLGESVTITCLASQTIGTWLAWYQQKPGKSPQLLIYAATSLADGVPSRFSGSGSGTKFSFKISSLQAEDFVSYYCQQLDSIPWTFGGGTKLEIK | binds | binds | binds |  |  | 
11 | PD-1 mAb 15 (antibody, V domains shown, Murine monoclonal antibody) VH: EVMLVESGGGLVKPGGSLKLSCAASGFIFSSYLISWVRQTPEKRLEWVAAISGGGADTYYADSVKGRFTISRDNAKNTLYLQMSSLRSEDTALYYCTRRGTYAMDYWGQGTSVTVSS VL: DIQMTQSPASQSASLGESVTITCLASQTIGTWLAWYQQKPGKSPQLLIYAATSLADGVPSRFSGSGSGTKFSFKISSLQAEDFVNYYCQQLYSIPWTFGGGTKLEIK | binds |  | binds | 40.7 nM | 2.9 nM | 
12 | PD-1 mAb 11 (antibody, V domains shown, Murine monoclonal antibody) VH: EVQLQQSGTVLARPGASVKMSCKTSGYTFTGYWMHWVKQRPGQGLKWMGAIYPGNSDTHYNQKFKGKAKLTAVTSASTAYMELSSLTNEDSAIYYCTTGTYSYFDVWGTGTTVTVSS VL: DILLTQSPAILSVSPGERVSFSCRASQSIGTSIHWYQHRTNGSPRLLIKYASESISGIPSRFSGSGSGTDFTLSINSVESEDIADYYCQQSNSWLTFGAGTKLELK |  |  | binds |  |  | EC50 (read off the curve) [1]: ~0.2 µg/mL; EC50 (read off the curve) [2]: ~0.2 µg/mL

Second part, led by results:

Row | binding result [1] | binding result [2] | binding result [3] | Kd [6] | Kd [7] | Binder | other results
13 | binds | binds | binds |  |  | PD-1 mAb 12 (antibody, V domains shown, Murine monoclonal antibody) VH: QGHLQQSGAELVRPGASVTLSCKASGFTFTDYEMHWVKQTPVHGLEWIGTIDPETGGTAYNQKFKGKAILTVDKSSTTTYMELRSLTSEDSAVFYCSRERITTVVEGAYWYFDVWGTGTTVTVSS VL: DVLMTQTPLSLPVSLGDQASISCRSSQNIVHSNGNTYLEWYLQKPGQSPKLLICKVSTRFSGVPDRFSGSGSGTDFTLKISRVEAEDLGVYYCFQGSHVPYTFGGGTKLEIK | 
14 |  |  |  | 78.3 nM | 13.3 nM | hPD-1 mAb 15, constant region not named where tested (antibody, V domains shown, also called humanized PD-1 mAb 15) VH: EVQLVESGGGLVRPGGSLRLSCAASGFTFSSYLISWVRQAPGKGLEWVAAISGGGADTYYADSVKGRFTISRDNAKNSLYLQMNSLRAEDTATYYCARRGTYAMDYWGQGTLVTVSS VL: DIQMTQSPSSLSASVGDRVTITCLASQTIGTWLAWYQQKPGKAPKLLIYAATSLADGVPSRFSGSGSGTDFTFTISSLQPEDFATYYCQQLYSIPWTFGQGTKLEIK | 
15 | binds | binds | binds |  |  | PD-1 mAb 10 (antibody, V domains shown, Murine monoclonal antibody) VH: EVILVESGGGLVKPGGSLKLSCAASGFTFSNYLMSWVRQTPEKRLEWVASISGGGSNIYYPDSVKGRFTISRDNAKNTLYLQMNSLRSEDTALYYCARQELAFDYWGQGTTLTVSS VL: DIQMTQTTSSLSASLGDRVTISCRTSQDISNFLNWYQQKPDGTIKLLIYYTSRLHSGVPSRFSGSGSGTDYSLTISNLEQEDIATYFCQQGSTLPWTFGGGTKLEII | 
16 |  |  |  | 17 nM | 5 nM | hPD-1 mAb 2, constant region not named where tested (antibody, V domains shown, also called humanized PD-1 mAb 2) VH: EVQLVESGGGLVQPGGSLRLSCAASGFVFSSFGMHWVRQAPGKGLEWVAYISSGSMSISYADTVKGRFTISRDNAKNTLYLQMNSLRTEDTALYYCASLSDYFDYWGQGTTVTVSS VL: DVVMTQSPLSLPVTLGQPASISCRSSQSLVHSTGNTYLHWYLQKPGQSPQLLIYRVSNRFSGVPDRFSGSGSGTDFTLKISRVEAEDVGVYYCSQTTHVPWTFGQGTKLEIK | 

— US12534531 (MacroGenics, dated 2026)
